According to patent US12427210B2, “Compounds comprising a fibroblast activation protein ligand and use thereof” (priority 2019, dated 2025):

Tests used:
PDE3A (h) (human) = PDE3A (h) (human) (UniProt Q14432)
COX2(h) (human) = molecular target: T1, COX2(h) (human) (UniProt P35354)
T1 sequence: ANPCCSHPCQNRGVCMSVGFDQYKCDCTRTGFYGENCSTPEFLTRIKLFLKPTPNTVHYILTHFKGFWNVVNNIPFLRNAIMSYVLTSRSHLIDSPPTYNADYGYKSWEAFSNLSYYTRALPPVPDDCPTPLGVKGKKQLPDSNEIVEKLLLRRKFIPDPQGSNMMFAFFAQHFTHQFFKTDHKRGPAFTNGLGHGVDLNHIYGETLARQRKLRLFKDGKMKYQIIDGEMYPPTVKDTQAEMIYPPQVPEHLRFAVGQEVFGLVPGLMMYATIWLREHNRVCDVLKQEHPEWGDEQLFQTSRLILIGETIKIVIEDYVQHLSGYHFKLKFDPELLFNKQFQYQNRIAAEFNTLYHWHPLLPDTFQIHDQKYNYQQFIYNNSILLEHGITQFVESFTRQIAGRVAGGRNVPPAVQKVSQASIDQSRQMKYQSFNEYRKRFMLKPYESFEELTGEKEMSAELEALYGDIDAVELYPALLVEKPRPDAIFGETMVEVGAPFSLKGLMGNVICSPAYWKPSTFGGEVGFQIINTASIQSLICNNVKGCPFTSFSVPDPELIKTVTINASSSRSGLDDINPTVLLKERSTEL

COX1(h) (human) = COX1(h) (human) (UniProt P23219)
[1] = molecular target: Acetylcholinesterase (h) (human) (UniProt P22303)
PDE4D2 (h) (human) = PDE4D2 (h) (human) (UniProt Q08499)
Lck kinase (h) (human) = Lck kinase (h) (human) (UniProt P06239)
[2] = molecular target: Ca2+ channel (L, dihydropyridine site); test: radioligand displacement, compound at 10 µM
BZD (central) = test: radioligand displacement, compound at 10 µM
MAO-A = test: radioligand displacement, compound at 10 µM
KV channel = test: radioligand displacement, compound at 10 µM
Na+ channel (site 2) = test: radioligand displacement, compound at 10 µM
NMDA = test: radioligand displacement, compound at 10 µM
[3] = molecular target: T2, Caspase-7 (Homo sapiens (Human)) (UniProt P55210)
T2 sequence: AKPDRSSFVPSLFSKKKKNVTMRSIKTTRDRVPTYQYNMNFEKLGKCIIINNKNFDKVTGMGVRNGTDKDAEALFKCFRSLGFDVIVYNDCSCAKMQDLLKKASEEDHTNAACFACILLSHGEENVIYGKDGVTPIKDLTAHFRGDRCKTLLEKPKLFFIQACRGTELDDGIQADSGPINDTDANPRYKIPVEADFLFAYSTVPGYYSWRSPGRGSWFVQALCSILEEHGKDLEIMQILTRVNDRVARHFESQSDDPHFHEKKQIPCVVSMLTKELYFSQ

[4] = molecular target: Matrix metalloprotease 2 (Homo sapiens (Human)) (UniProt P08253)
[5] = molecular target: T3, Renin (Homo sapiens (Human)) (UniProt P00797)
T3 sequence: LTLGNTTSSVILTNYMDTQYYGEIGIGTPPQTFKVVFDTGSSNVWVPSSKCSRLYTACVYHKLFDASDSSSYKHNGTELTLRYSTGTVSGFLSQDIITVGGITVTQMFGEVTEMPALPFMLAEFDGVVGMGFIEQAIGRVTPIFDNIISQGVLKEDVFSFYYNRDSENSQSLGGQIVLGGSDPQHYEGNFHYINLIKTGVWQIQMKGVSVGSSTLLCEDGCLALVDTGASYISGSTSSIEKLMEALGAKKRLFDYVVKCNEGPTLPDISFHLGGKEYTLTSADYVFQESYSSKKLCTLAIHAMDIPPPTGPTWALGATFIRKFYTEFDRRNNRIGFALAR

[6] = molecular target: Ubiquitin carboxyl-terminal hydrolase 7 (Homo sapiens (Human)) (UniProt Q93009)
[7] = molecular target: Ubiquitin carboxyl-terminal hydrolase 10 (Homo sapiens (Human)) (UniProt Q14694)
[8] = molecular target: Ubiquitin carboxy-terminal hydrolase L1 (Homo sapiens (Human)) (UniProt P09936)
[9] = molecular target: T4, Deubiquitinase OTUD6B (Homo sapiens (Human)) (UniProt Q8N6M0)
T4 sequence: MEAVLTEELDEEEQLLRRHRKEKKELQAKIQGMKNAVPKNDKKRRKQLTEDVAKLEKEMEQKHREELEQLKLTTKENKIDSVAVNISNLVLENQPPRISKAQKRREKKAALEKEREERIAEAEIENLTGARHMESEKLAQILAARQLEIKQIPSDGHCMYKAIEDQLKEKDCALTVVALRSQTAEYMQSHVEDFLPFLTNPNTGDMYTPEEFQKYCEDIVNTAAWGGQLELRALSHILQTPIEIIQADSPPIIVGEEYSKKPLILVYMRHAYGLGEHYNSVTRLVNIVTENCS

[10] = molecular target: Ubiquitin carboxyl-terminal hydrolase 14 (Homo sapiens (Human)) (UniProt P54578)
[11] = molecular target: serine protease NS3 (a.a. 3-181) from Hepatitis C virus genotype 2a (Hepatitis C virus genotype 2a)
[12] = molecular target: serine protease NS3 (a.a. 3-181) from Hepatitis C virus genotype 1b (mutant R155Q) (Hepatitis C virus genotype 1b)
[13] = molecular target: Cathepsin V (Homo sapiens (Human)) (UniProt O60911)
[14] = molecular target: Ubiquitin carboxyl-terminal hydrolase 8 (Homo sapiens (Human)) (UniProt P40818)
[15] = molecular target: T5, Ubiquitin carboxyl-terminal hydrolase 2 (Homo sapiens (Human)) (UniProt O75604)
T5 sequence: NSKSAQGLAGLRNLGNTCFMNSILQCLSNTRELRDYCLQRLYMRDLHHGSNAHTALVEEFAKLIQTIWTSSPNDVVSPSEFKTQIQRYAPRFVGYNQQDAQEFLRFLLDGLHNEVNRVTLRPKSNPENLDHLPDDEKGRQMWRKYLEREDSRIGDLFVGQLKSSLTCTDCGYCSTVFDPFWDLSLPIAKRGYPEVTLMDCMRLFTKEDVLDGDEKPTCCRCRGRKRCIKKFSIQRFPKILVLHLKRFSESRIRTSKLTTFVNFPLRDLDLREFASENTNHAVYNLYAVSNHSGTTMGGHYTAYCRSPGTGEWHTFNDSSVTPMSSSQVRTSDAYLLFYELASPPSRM

[16] = molecular target: DPP8 (Homo sapiens (Human)) (UniProt Q6V1X1)

Matrix metalloprotease 2 (Homo sapiens (Human)), sequence (P08253 110-660): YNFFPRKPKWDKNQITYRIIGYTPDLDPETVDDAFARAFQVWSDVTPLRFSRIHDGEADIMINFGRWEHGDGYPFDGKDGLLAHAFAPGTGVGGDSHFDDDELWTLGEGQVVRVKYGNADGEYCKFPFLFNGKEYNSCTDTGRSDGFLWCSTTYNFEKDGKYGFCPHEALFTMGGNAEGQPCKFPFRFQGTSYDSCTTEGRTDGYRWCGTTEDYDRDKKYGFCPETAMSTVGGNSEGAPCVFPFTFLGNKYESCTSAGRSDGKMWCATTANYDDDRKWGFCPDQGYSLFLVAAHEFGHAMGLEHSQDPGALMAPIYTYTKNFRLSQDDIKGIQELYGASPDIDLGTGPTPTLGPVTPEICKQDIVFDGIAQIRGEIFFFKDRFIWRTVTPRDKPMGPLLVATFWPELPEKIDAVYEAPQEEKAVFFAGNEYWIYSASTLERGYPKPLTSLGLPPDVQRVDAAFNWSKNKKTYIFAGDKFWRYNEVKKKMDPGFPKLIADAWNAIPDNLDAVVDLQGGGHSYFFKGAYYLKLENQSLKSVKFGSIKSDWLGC
PDE4D2 (h) (human), sequence (Q08499 303-809): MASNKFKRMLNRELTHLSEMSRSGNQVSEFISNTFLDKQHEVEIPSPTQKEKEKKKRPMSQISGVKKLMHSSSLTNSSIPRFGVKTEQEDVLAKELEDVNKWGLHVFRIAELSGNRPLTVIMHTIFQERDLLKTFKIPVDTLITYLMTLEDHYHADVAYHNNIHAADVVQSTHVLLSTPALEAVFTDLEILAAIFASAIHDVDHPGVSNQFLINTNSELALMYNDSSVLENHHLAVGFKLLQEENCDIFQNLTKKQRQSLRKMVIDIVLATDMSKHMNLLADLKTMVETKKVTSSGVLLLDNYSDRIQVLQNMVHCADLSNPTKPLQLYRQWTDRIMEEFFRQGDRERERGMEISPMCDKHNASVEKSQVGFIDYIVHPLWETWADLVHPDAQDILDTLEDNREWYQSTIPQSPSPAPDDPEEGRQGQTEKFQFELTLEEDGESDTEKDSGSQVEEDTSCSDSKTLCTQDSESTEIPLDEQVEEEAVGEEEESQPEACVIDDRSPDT
Acetylcholinesterase (h) (human), sequence (P22303 32-614 limits assumed): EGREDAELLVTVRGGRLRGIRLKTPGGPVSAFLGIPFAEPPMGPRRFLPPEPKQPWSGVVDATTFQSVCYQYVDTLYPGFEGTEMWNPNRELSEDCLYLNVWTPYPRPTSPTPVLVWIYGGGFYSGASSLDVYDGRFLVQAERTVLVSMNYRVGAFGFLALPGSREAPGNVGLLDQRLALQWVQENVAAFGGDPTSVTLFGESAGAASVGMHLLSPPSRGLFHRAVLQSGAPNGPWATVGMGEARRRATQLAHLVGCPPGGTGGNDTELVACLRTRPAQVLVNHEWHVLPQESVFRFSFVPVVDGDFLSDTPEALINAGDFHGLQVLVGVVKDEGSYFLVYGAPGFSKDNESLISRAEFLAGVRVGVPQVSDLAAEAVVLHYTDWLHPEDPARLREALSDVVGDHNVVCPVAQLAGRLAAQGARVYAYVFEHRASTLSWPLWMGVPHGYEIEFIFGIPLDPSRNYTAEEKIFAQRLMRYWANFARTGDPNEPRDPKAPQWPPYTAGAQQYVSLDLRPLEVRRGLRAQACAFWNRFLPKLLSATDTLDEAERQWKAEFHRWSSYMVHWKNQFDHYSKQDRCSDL
COX1(h) (human), sequence (P23219 24-599 limits assumed): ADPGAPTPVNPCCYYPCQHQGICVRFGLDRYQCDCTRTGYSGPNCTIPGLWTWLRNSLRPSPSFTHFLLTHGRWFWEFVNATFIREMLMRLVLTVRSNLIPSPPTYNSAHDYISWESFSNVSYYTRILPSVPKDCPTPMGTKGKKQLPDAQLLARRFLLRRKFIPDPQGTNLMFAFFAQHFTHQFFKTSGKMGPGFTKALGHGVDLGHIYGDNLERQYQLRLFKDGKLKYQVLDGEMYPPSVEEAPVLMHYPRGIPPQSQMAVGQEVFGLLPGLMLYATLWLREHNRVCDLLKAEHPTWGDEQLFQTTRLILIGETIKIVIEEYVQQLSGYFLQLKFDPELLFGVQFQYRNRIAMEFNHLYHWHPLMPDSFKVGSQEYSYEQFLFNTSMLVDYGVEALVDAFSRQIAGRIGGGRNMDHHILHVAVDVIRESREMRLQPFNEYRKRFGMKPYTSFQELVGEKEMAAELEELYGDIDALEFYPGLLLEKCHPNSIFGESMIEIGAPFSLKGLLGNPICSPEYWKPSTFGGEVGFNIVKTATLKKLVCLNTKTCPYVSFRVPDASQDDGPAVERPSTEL
Ubiquitin carboxyl-terminal hydrolase 10 (Homo sapiens (Human)), sequence (Q14694 whole entry): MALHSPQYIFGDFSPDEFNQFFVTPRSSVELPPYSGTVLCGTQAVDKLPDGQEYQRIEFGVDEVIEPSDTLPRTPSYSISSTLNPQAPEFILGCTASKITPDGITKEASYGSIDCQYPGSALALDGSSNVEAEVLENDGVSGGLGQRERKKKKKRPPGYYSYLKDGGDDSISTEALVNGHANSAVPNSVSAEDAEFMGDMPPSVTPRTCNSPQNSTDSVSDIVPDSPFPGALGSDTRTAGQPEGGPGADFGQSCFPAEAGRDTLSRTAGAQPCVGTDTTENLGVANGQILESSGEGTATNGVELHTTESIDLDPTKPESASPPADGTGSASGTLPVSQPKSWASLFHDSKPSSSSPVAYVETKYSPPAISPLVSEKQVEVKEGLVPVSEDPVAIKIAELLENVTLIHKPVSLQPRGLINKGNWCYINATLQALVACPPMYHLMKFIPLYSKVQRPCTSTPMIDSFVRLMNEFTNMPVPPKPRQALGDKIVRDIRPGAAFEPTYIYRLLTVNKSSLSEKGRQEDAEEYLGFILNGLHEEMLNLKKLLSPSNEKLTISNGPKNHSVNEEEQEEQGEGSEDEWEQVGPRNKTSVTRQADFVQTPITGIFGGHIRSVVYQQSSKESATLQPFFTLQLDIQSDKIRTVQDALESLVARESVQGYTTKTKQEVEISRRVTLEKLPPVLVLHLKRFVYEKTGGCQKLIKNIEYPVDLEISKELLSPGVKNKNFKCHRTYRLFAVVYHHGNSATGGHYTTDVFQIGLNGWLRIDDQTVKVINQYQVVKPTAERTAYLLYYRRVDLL

| Substance | % inhibition of control enzyme activity (PDE3A (h) (human)) [% at 10 µM] | % inhibition of control enzyme activity (COX2(h) (human)) [% at 10 µM] | % inhibition of control enzyme activity (COX1(h) (human)) [% at 10 µM] | % inhibition of control enzyme activity [1] [% at 10 µM] | % inhibition of control enzyme activity (PDE4D2 (h) (human)) [% at 10 µM] | % inhibition of control enzyme activity (Lck kinase (h) (human)) [% at 10 µM] | % Inhibition of Specific Binding [2] [%] | % Inhibition of Specific Binding (BZD (central)) [%] | % Inhibition of Specific Binding (MAO-A) [%] | % Inhibition of Specific Binding (KV channel) [%] | % Inhibition of Specific Binding (Na+ channel (site 2)) [%] | % Inhibition of Specific Binding (NMDA) [%] | Percentage inhibition (%) (% inhibition at 10 µM) [3] | Percentage inhibition (%) (% inhibition at 10 µM) [4] | Percentage inhibition (%) (% inhibition at 10 µM) [5] | Percentage inhibition (%) (% inhibition at 10 µM) [6] | Percentage inhibition (%) (% inhibition at 10 µM) [7] | Percentage inhibition (%) (% inhibition at 10 µM) [8] | Percentage inhibition (%) (% inhibition at 10 µM) [9] | Percentage inhibition (%) (% inhibition at 10 µM) [10] | also measured |
| --- | --- | --- | --- | --- | --- | --- | --- | --- | --- | --- | --- | --- | --- | --- | --- | --- | --- | --- | --- | --- | --- |
| Hex-[Cys(tMeBn(DOTA-AET))-Pro-Pro-Thr-Gln-Phe-Cys]-OH (3BP-3554) (peptide) | -37 | -22 | 8 | 1 | -4 | -4 | 54 | 5 | -25 | 4 | 14 | 1 | -7 | -2 | -1 | 1 | -1 | 4 | 0 | 2 | Percentage inhibition (%) (% inhibition at 10 µM) [11]: -40; Percentage inhibition (%) (% inhibition at 10 µM) [12]: -5; Percentage inhibition (%) (% inhibition at 10 µM) [13]: -1; Percentage inhibition (%) (% inhibition at 10 µM) [14]: 1; Percentage inhibition (%) (% inhibition at 10 µM) [15]: -1; Percentage inhibition (%) (% inhibition at 10 µM) [16]: 11 |
| Hex-[Cys(tMeBn(DOTA-PP))-Pro-Pro-Thr-Gln-Phe-Cys]-Asp-NH2 (3BP-3407) (peptide) | -3 | -14 | 10 | -6 | -5 | 10 | 42 | -9 | -5 | -5 | -7 | 9 | -3 | 3 | 3 | 5 | 5 | 4 | 15 | 5 | Percentage inhibition (%) (% inhibition at 10 µM) [11]: -2; Percentage inhibition (%) (% inhibition at 10 µM) [12]: 2; Percentage inhibition (%) (% inhibition at 10 µM) [13]: -18; Percentage inhibition (%) (% inhibition at 10 µM) [14]: 6; Percentage inhibition (%) (% inhibition at 10 µM) [15]: 7; Percentage inhibition (%) (% inhibition at 10 µM) [16]: 5 |
